Tests used:
[1] = biological target: HLA-A*01:01; experiment: IEDB peptide-MHC binding, purified MHC/competitive/radioactivity; filed as Kd, often an IC50 or EC50 that approximates it; ≥ and ≤ were set here for values at or beyond the usual limits of such assays
[2] = biological target: HLA-A*23:01; experiment: as above
[3] = biological target: HLA-A*29:02; experiment: as above
[4] = biological target: HLA-A*30:02; experiment: as above
[5] = biological target: HLA-A*26:01; experiment: as above
[6] = biological target: HLA-A*24:02; experiment: as above
[7] = biological target: HLA-A*32:01; experiment: as above
[8] = biological target: HLA-A*01:01; experiment: IEDB peptide-MHC binding, purified MHC/direct/fluorescence; filed as Kd, often an IC50 or EC50 that approximates it; ≥ and ≤ were set here for values at or beyond the usual limits of such assays; conditions: source organism: SARS-CoV1
[9] = biological target: HLA-B*58:01; experiment: as above; conditions: source organism: SARS-CoV1
[10] = biological target: HLA-A*03:01; experiment: as above; conditions: source organism: SARS-CoV1
[11] = biological target: HLA-B*15:01; experiment: as above; conditions: source organism: SARS-CoV1
[12] = biological target: HLA-A*30:01; experiment: IEDB peptide-MHC binding, purified MHC/competitive/radioactivity; filed as Kd, often an IC50 or EC50 that approximates it; ≥ and ≤ were set here for values at or beyond the usual limits of such assays
[13] = biological target: HLA-B*08:01; experiment: as above
[14] = biological target: HLA-B*51:01; experiment: as above; conditions: source organism: Dengue virus 1 Brazil/97-11/1997
[15] = source organism: SARS coronavirus Tor2
[16] = source organism: Mammarenavirus machupoense
[17] = source organism: Mammarenavirus choriomeningitidis
[18] = source organism: Mammarenavirus guanaritoense
[19] = source organism: Mammarenavirus lassaense
[20] = source organism: Dengue virus 1 Brazil/97-11/1997
[21] = source organism: Vaccinia virus WR
[22] = source organism: Dengue virus 4 Philippines/H241/1956

## AFIDTIKSL
[1]; [15]
  Kd: ≥ 78.1 µM
[2]; [15]
  Kd: 5.01 µM
[3]; [15]
  Kd: 2.95 µM
[4]; [15]
  Kd: 13.6 µM
[5]; [15]
  Kd: ≥ 34.2 µM
[6]; [15]
  Kd: 10.2 µM

## AILLVAVSF
[7]; source organism: Dengue virus 2 Jamaica/1409/1983
  Kd: 12.8 µM

## AYSNRNRFL
[1]; [15]
  Kd: ≥ 78.1 µM
[2]; [15]
  Kd: 0.658 µM
[3]; [15]
  Kd: 6.64 µM
[4]; [15]
  Kd: ≥ 54.7 µM
[5]; [15]
  Kd: ≥ 77.9 µM
[6]; [15]
  Kd: 0.0922 µM

## CADGTRHTY
[2]; [15]
  Kd: ≥ 67.6 µM
[3]; [15]
  Kd: 0.963 µM
[4]; [15]
  Kd: 0.0398 µM
[5]; [15]
  Kd: 2.78 µM
[6]; [15]
  Kd: ≥ 37.7 µM
[8]
  Kd: 0.439 µM
[9]
  Kd: 1.21 µM
[10]
  Kd: 9.67 µM
[11]
  Kd: 1.26 µM

## CGDPSSLDY
[1]; [16]
  Kd: 0.00678 µM
[2]; [16]
  Kd: ≥ 77.7 µM
[3]; [16]
  Kd: 4.73 µM
[4]; [16]
  Kd: 0.87 µM
[5]; [16]
  Kd: ≥ 74.6 µM
[6]; [16]
  Kd: ≥ 77.5 µM

## CWFADTNLI
[2]; [16]
  Kd: 0.0886 µM
[3]; [16]
  Kd: 1.29 µM
[6]; [16]
  Kd: 0.101 µM

## DTSNTGRAEL
[1]; [17]
  Kd: ≥ 50.2 µM
[12]; [17]
  Kd: ≥ 24.5 µM
[3]; [17]
  Kd: ≥ 71.4 µM
[4]; [17]
  Kd: 7.18 µM
[5]; [17]
  Kd: 16 µM
[7]; [17]
  Kd: ≥ 69.9 µM

## EDAQPGLLSY
[1]; [18]
  Kd: ≥ 70.4 µM
[2]; [18]
  Kd: ≥ 70 µM
[3]; [18]
  Kd: 8.21 µM
[4]; [18]
  Kd: 17.6 µM
[5]; [18]
  Kd: ≥ 25.8 µM
[6]; [18]
  Kd: ≥ 70.3 µM

## EGFMRKQKY
[1]; [17]
  Kd: ≥ 49.6 µM
[2]; [17]
  Kd: ≥ 56.1 µM
[3]; [17]
  Kd: ≥ 78.9 µM
[4]; [17]
  Kd: ≥ 53.5 µM
[5]; [17]
  Kd: ≥ 77.9 µM
[6]; [17]
  Kd: ≥ 77.5 µM

## ESDGKPQKV
[1]; [19]
  Kd: 0.188 µM
[2]; [19]
  Kd: ≥ 77.7 µM
[3]; [19]
  Kd: ≥ 78.9 µM
[4]; [19]
  Kd: ≥ 76.9 µM
[5]; [19]
  Kd: ≥ 77.9 µM
[6]; [19]
  Kd: ≥ 77.5 µM

## FFKCFRYVF
[13]; source organism: Vaccinia virus Copenhagen
  Kd: 0.0109 µM

## FFTYLCGFI
[1]; [15]
  Kd: ≥ 43.1 µM
[2]; [15]
  Kd: 13.7 µM
[3]; [15]
  Kd: 0.822 µM
[4]; [15]
  Kd: ≥ 78.9 µM
[5]; [15]
  Kd: ≥ 77.9 µM
[6]; [15]
  Kd: 18.8 µM

## FFVYENAFL
[1]; [15]
  Kd: ≥ 78.1 µM
[2]; [15]
  Kd: 6.78 µM
[3]; [15]
  Kd: ≥ 107 µM
[4]; [15]
  Kd: ≥ 96.8 µM
[5]; [15]
  Kd: ≥ 32.7 µM
[6]; [15]
  Kd: 9.05 µM

## FQPHQLWTTL
[7]; [20]
  Kd: 0.761 µM

## FSAVGNICY
[1]; [15]
  Kd: 0.00034 µM
[2]; [15]
  Kd: ≥ 77.8 µM
[3]; [15]
  Kd: 0.00797 µM
[4]; [15]
  Kd: 0.0285 µM
[5]; [15]
  Kd: 0.409 µM
[6]; [15]
  Kd: ≥ 51.6 µM

## GFKKRVNVF
[13]; [21]
  Kd: 0.11 µM

## GSIIQFPNTY
[1]; [15]
  Kd: 1.05 µM
[2]; [15]
  Kd: ≥ 70 µM
[3]; [15]
  Kd: 0.462 µM
[4]; [15]
  Kd: 0.545 µM
[5]; [15]
  Kd: 1.88 µM
[6]; [15]
  Kd: ≥ 70.3 µM

## GTINRILVI
[7]; [21]
  Kd: 0.0145 µM

## GYTMHANYIF
[1]; [15]
  Kd: ≥ 44.1 µM
[2]; [15]
  Kd: 0.0164 µM
[3]; [15]
  Kd: 0.407 µM
[4]; [15]
  Kd: 7.59 µM
[5]; [15]
  Kd: ≥ 41.1 µM
[6]; [15]
  Kd: 0.0111 µM

## HMLEFLYSF
[7]; [21]
  Kd: 0.000296 µM

## HTSSMRGVY
[1]; [15]
  Kd: 0.0852 µM
[2]; [15]
  Kd: ≥ 77.8 µM
[3]; [15]
  Kd: 0.00821 µM
[4]; [15]
  Kd: 0.000131 µM
[5]; [15]
  Kd: 0.00478 µM
[6]; [15]
  Kd: ≥ 77.6 µM

## IAFLRFLAI
[14]
  Kd: 0.00953 µM
[13]; [20]
  Kd: 0.00126 µM

## ILLNNPNLF
[2]; [18]
  Kd: 0.423 µM
[3]; [18]
  Kd: 0.0467 µM
[6]; [18]
  Kd: 0.793 µM

## ISKVRSNAA
[12]; [22]
  Kd: 0.712 µM
[13]; [22]
  Kd: 0.00731 µM

Source: the Immune Epitope Database (IEDB)
